Assay results as given in paper PMC7369975, “Scalable High-Performance Production of Recombinant Horseradish Peroxidase from E. coli Inclusion Bodies” (International Journal of Molecular Sciences, 2020).

How the values were obtained:
Assay type in all cases: biochemical, Armoracia rusticana
[1] = tested on: T1, pHRP (commercial plant HRP Type VI-A); assay: absorbance at […] nm, initial rate, 96-well plate; conditions: 1 mM H2O2 (saturating), 50 mM phosphate-citrate, pH 5, 30 °C; ABTS 0.1-7 mM
T1 construct: gene PRXC1A; native glycosylated enzyme from horseradish root, commercial preparation, variable isoenzyme mixture, 44 kDa

[2] = tested on: T1, pHRP (commercial plant HRP Type VI-A); assay: absorbance at […] nm, initial rate, 96-well plate; conditions: 1 mM H2O2 (saturating), 50 mM phosphate-citrate, pH 5; TMB 0.02-0.55 mM
purified protein = substrate: Cc1cc(-c2cc(C)c(N)c(C)c2)cc(C)c1N; assay: purified protein; conditions: 1 mM H2O2 (saturating), 50 mM phosphate-citrate, pH 5, TMB 0.02-0.55 mM

Molecule: CCn1c(=NN=c2sc3cc(S(=O)(=O)O)ccc3n2CC)sc2cc(S(=O)(=O)O)ccc21 [ABTS, 2,2′-azino-bis (3-ethylbenzothiazoline-6-sulphonic acid)]
- Km [1]: 700 ± 140 µM

Molecule: Cc1cc(-c2cc(C)c(N)c(C)c2)cc(C)c1N [TMB, 3,3′,5,5′-tetramethylbenzidine]
- Km [2]: 101 ± 20 µM

B1: rHRP (refolded recombinant HRP, variant C1A) (Armoracia rusticana) (protein)
chain: QLTPTFYDNSCPNVSNIVRDTIVNELRSDPRIAASILRLHFHDCFVNGCDASILLDNTTSFRTEKDAFGNANSARGFPVIDRMKAAVESACPRTVSCADLLTIAAQQSVTLAGGPSWRVPLGRRDSLQAFLDLANANLPAPFFTLPQLKDSFRNVGLNRSSDLVALSGGHTFGKNQCRFIMDRLYNFSNTGLPDPTLNTTYLQTLRGLCPLNGNLSALVDFDLRTPTIFDNKYYVNLEEQKGLIQSDQELFSSPNATDTIPLVRSFANSTQTFFNAFVEAMDRMGNITPLTGTQGQIRLNCRVVNSNS
- Km (purified protein): 105 ± 14 µM
- Vmax (purified protein): 7150 µmol/min/mg
- kcat (purified protein): 4170 ± 207 s⁻¹
- kcat/Km (purified protein): 3.96e+07 ± 5.66e+06 M⁻¹ s⁻¹
